Experimental data: PMC10302723, “Differential regulation of Shigella Spa47 ATPase activity by a native C-terminal product of Spa33” (Frontiers in Cellular and Infection Microbiology, 2023)

B1: Spa33C containing an N-terminal 6 x histidine tag (domain or fragment)
chain: MNDNNEAKINLSESNGESEHTEVSLALFNYDDINVKVDFILLEKNMTINELKMYVENELFKFPDDIVKHVNIKVNGSLVGHGELVSIEDGYGIEISSWMVKE
notes: Spa33, Shigella flexneri 2457T; Homodimer by SV-AUC (27 ± 3 kDa; dimer with His tag = 27.5 kDa); also called recombinant Spa33C; homo-dimeric Spa33C; source: E. coli, purified (IMAC, SEC); not shown: His6, N-terminal, kept
B2: EGFP-Spa33C fluorescent protein chimera with an N-terminal 6 x histidine tag (domain or fragment)
chain: B1 chain
notes: Spa33, Shigella flexneri 2457T; EGFP is the fluorescent probe of the polarisation assay; Oligomer state of the chimera was not measured (Spa33C with His tag is a homodimer); also called fluorescent Spa33C construct; source: E. coli (pET15b), purified (IMAC, SEC); not shown: EGFP, N-terminal, kept

Tests used:
[1] = target: the molecule itself; experiment: AUC; sedimentation velocity of purified His-tagged Spa33C; a single dominant species of 27 ± 3 kDa; monomer to dimer
[2] = target: T1, monomeric Spa47 (SEC-isolated) (Shigella, UniProt P0A1C1 1-430); experiment: fluorescence polarisation; EGFP-Spa33C (or EGFP as control) held at 100 nM, Spa47 monomer or oligomer titrated 0-1.5 μM (monomer units); single site saturation binding model; concentration at half-maximum change in polarisation; settings: both partners purified
T1 construct: Spa47, Shigella T3SS ATPase; Same construct as m5 and m8; also called Spa47 monomer; monomeric Spa47 isolate; source: E. coli, purified (chitin column with on-column intein cleavage, anion exchange, SEC isolation of the monomer)

[3] = target: T2, oligomeric Spa47 (SEC-isolated homo-oligomer) (Shigella, UniProt P0A1C1 1-430); experiment: as above; settings: both partners purified
T2 construct: Spa47, Shigella T3SS ATPase; Same construct as m5 and m7; also called Spa47 oligomer; homo-oligomeric Spa47; source: E. coli, purified (chitin column with on-column intein cleavage, anion exchange, SEC isolation of the oligomer)

| Binder | stoichiometry N [1] | Kd [2] [nM] | Kd [3] [nM] |
| --- | --- | --- | --- |
| B1 | 2 | – | – |
| B2 | – | 50 ± 7 | 80 ± 10 |
